Data taken from patent publication US20150344570A1 (published 2015).

T1: FcγRIIb extracellular domain with C-terminal His tag (human, UniProt P31994 43-217)
T1 construct: extracellular domain; also called FcgRIIb; 2b
T1 sequence (looked up): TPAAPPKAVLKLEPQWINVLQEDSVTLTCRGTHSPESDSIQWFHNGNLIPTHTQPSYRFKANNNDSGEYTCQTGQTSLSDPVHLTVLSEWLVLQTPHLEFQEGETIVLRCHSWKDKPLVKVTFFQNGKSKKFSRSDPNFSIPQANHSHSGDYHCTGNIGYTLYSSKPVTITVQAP

B1: GpH7-A5/GpH7-B3 variant Q295_11K/GpL16-k0 (antibody, human IgG1, kappa)
heavy 1: not shown
heavy 2: not shown
light: DIVMTQSPLSLPVTPGEPASISCQASESLVHSNRNTYLHWYLQKPGQSPQLLIYKVSNRFSGVPDRFSGSGSGTDFTLKISRVEAEDVGVYYCSQNTHVPPTFGQGTKVEIERTVAAPSVFIFPPSDEQLKSGTASVVCLLNNFYPREAKVQWKVDNALQSGNSQESVTEQDSKDSTYSLSSTLTLSKADYEKHKVYACEVTHQGLSSPVTKSFNRGEC
notes: Heterodimerized anti-glypican-3 IgG1; alteration only in the GpH7-B3 chain, EU numbering; also called He Ab
B2: GpH7-A5/GpH7-B3 variant Q295_16H/GpL16-k0 (antibody, human IgG1, kappa)
heavy 1: not shown
heavy 2: not shown
light: B1 light
notes: as for B1
B3: GpH7-A5/GpH7-B3 variant Q295_14T/GpL16-k0 (antibody, human IgG1, kappa)
heavy 1: not shown
heavy 2: not shown
light: B1 light
notes: as for B1
B4: GpH7-A5/GpH7-B3 variant S298_07I/GpL16-k0 (antibody, human IgG1, kappa)
heavy 1: not shown
heavy 2: not shown
light: B1 light
notes: as for B1
B5: GpH7-A5/GpH7-B3 variant Y296_03V/GpL16-k0 (antibody, human IgG1, kappa)
heavy 1: not shown
heavy 2: not shown
light: B1 light
notes: as for B1
B6: GpH7-A5/GpH7-B3 variant S298_04F/GpL16-k0 (antibody, human IgG1, kappa)
heavy 1: not shown
heavy 2: not shown
light: B1 light
notes: as for B1
B7: GpH7-A5/GpH7-B3 variant Y296_13S/GpL16-k0 (antibody, human IgG1, kappa)
heavy 1: not shown
heavy 2: not shown
light: B1 light
notes: as for B1
B8: GpH7-A5/GpH7-B3 variant Q295_20W/GpL16-k0 (antibody, human IgG1, kappa)
heavy 1: not shown
heavy 2: not shown
light: B1 light
notes: as for B1
B9: GpH7-A5/GpH7-B3 variant Q295_12R/GpL16-k0 (antibody, human IgG1, kappa)
heavy 1: not shown
heavy 2: not shown
light: B1 light
notes: as for B1
B10: GpH7-A5/GpH7-B3 variant S298_03V/GpL16-k0 (antibody, human IgG1, kappa)
heavy 1: not shown
heavy 2: not shown
light: B1 light
notes: as for B1
B11: GpH7-A5/GpH7-B3 variant S298_05P/GpL16-k0 (antibody, human IgG1, kappa)
heavy 1: not shown
heavy 2: not shown
light: B1 light
notes: as for B1
B12: GpH7-A5/GpH7-B3 variant Y296_19Q/GpL16-k0 (antibody, human IgG1, kappa)
heavy 1: not shown
heavy 2: not shown
light: B1 light
notes: as for B1
B13: GpH7-A5/GpH7-B3 variant Q295_15Y/GpL16-k0 (antibody, human IgG1, kappa)
heavy 1: not shown
heavy 2: not shown
light: B1 light
notes: as for B1
B14: GpH7-A5/GpH7-B3 variant Y296_12R/GpL16-k0 (antibody, human IgG1, kappa)
heavy 1: not shown
heavy 2: not shown
light: B1 light
notes: as for B1
B15: GpH7-A5/GpH7-B3 variant Q295_13S/GpL16-k0 (antibody, human IgG1, kappa)
heavy 1: not shown
heavy 2: not shown
light: B1 light
notes: as for B1
B16: GpH7-A5/GpH7-B3 variant Y296_11K/GpL16-k0 (antibody, human IgG1, kappa)
heavy 1: not shown
heavy 2: not shown
light: B1 light
notes: as for B1
B17: GpH7-A5/GpH7-B3 variant Y296_08L/GpL16-k0 (antibody, human IgG1, kappa)
heavy 1: not shown
heavy 2: not shown
light: B1 light
notes: as for B1
B18: GpH7-A5/GpH7-B3 variant S298_02A/GpL16-k0 (antibody, human IgG1, kappa)
heavy 1: not shown
heavy 2: not shown
light: B1 light
notes: Heterodimerized anti-glypican-3 IgG1; S298A (EU numbering) only in the GpH7-B3 chain; also called He Ab; GpH7-A5/GpH7-B3-15-02A/GpL16-k0
B19: GpH7-A5/GpH7-B3 variant Y296_01G/GpL16-k0 (antibody, human IgG1, kappa)
heavy 1: not shown
heavy 2: not shown
light: B1 light
notes: as for B1
B20: GpH7-A5/GpH7-B3 variant Y296_05P/GpL16-k0 (antibody, human IgG1, kappa)
heavy 1: not shown
heavy 2: not shown
light: B1 light
notes: as for B1
B21: GpH7-A5/GpH7-B3 variant Y296_07I/GpL16-k0 (antibody, human IgG1, kappa)
heavy 1: not shown
heavy 2: not shown
light: B1 light
notes: as for B1
B22: GpH7-A5/GpH7-B3 variant Q295_18N/GpL16-k0 (antibody, human IgG1, kappa)
heavy 1: not shown
heavy 2: not shown
light: B1 light
notes: as for B1
B23: GpH7-A5/GpH7-B3 variant S298_01G/GpL16-k0 (antibody, human IgG1, kappa)
heavy 1: not shown
heavy 2: not shown
light: B1 light
notes: as for B1
B24: GpH7-A5/GpH7-B3 variant Y296_02A/GpL16-k0 (antibody, human IgG1, kappa)
heavy 1: not shown
heavy 2: not shown
light: B1 light
notes: as for B1

The binders below were run against T2, FcγRIa extracellular domain with C-terminal His tag (human, UniProt P12314 16-292) (assay: SPR (Biacore); He/Con_1a divided by He/Con_2b (FcγRIa binding over FcγRIIb binding)).
T2 construct: extracellular domain; also called FcgRI; 1a
T2 sequence (P12314 16-292): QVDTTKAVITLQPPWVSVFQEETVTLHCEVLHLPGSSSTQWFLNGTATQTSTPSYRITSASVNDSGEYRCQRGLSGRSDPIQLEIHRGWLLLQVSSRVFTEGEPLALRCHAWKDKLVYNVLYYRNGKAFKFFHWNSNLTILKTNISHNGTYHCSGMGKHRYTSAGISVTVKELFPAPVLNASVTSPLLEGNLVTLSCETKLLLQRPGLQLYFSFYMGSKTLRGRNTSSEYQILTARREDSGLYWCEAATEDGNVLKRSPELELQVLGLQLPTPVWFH
Method: (§1) The heterodimerized antibodies He Abs in which one of the H chains was introduced with an alteration were assayed for their binding activities to each activating FcγR and inhibitory FcγR according to the method described in Example 4. […] The activating FcγRs in FIGS. 26, 27, 28, and 29 are FcγRIa, FcγRIIa (R), FcγRIIa (H), and FcγRIIIa, respectively.
(§2) Analysis of interaction between objective antibody and the FcγR was carried out using Biacore T100 (GE Healthcare). HBS-EP+ (GE Healthcare) was used as the running buffer, and the measurement temperature was set to 25° C. Chips produced by immobilizing the antigen peptide by the amine coupling method to a Series S Sencor Chip CM5 (GE Healthcare), or alternatively, chips produced by allowing preliminarily biotinylated antigen peptides to interact with and immobilize onto a Series S Sensor Chip SA (certified) (GE Healthcare) were used. Antibodies of interest were captured onto an antigen peptide-immobilized chip, and allowed to interact to each FcγR diluted with running buffer. To regenerate and repeatedly use the chip, the antibodies captured on the chip were washed off by reacting 10 mM glycine-HCl, pH 1.5.

Row | He_1a/2b (Ia/IIb) | Binder
1 | 1.44 ratio | B1
2 | 1.64 ratio | B2
3 | 1.54 ratio | B3
4 | 1.52 ratio | B4
5 | 1.31 ratio | B5
6 | 1.67 ratio | B6
7 | 1.22 ratio | B7
8 | 2.11 ratio | B8
9 | 1.54 ratio | B9
10 | 1.7 ratio | B10
11 | 7.7 ratio | B11
12 | 1.25 ratio | B12
13 | 1.56 ratio | B13
14 | 1.34 ratio | B14
15 | 1.79 ratio | B15
16 | 1.44 ratio | B16
17 | 1.26 ratio | B17
18 | 1.45 ratio | B18
19 | 1.29 ratio | B19
20 | 2.61 ratio | B20
21 | 1.24 ratio | B21
22 | 1.58 ratio | B22
23 | 1.29 ratio | B23
24 | 1.26 ratio | B24

These binders were tested against T2, FcγRIa extracellular domain with … (assay: SPR (Biacore), antibody captured via antigen peptide, FcγR as analyte; relative binding).
Method: as §1, §2

Row | He/Con_1a | Binder
25 | 101 % of GpH7-A5/GpH7-B3/GpL16-k0 (=100) | B1
26 | 102 % of GpH7-A5/GpH7-B3/GpL16-k0 (=100) | B2
27 | 103 % of GpH7-A5/GpH7-B3/GpL16-k0 (=100) | B3
28 | 107 % of GpH7-A5/GpH7-B3/GpL16-k0 (=100) | B4
29 | 104 % of GpH7-A5/GpH7-B3/GpL16-k0 (=100) | B5
30 | 109 % of GpH7-A5/GpH7-B3/GpL16-k0 (=100) | B6
31 | 105 % of GpH7-A5/GpH7-B3/GpL16-k0 (=100) | B7
32 | 93.7 % of GpH7-A5/GpH7-B3/GpL16-k0 (=100) | B8
33 | 100 % of GpH7-A5/GpH7-B3/GpL16-k0 (=100) | B9
34 | 110 % of GpH7-A5/GpH7-B3/GpL16-k0 (=100) | B10
35 | 91.6 % of GpH7-A5/GpH7-B3/GpL16-k0 (=100) | B11
36 | 112 % of GpH7-A5/GpH7-B3/GpL16-k0 (=100) | B12
37 | 102 % of GpH7-A5/GpH7-B3/GpL16-k0 (=100) | B13
38 | 106 % of GpH7-A5/GpH7-B3/GpL16-k0 (=100) | B14
39 | 102 % of GpH7-A5/GpH7-B3/GpL16-k0 (=100) | B15
40 | 105 % of GpH7-A5/GpH7-B3/GpL16-k0 (=100) | B16
41 | 104 % of GpH7-A5/GpH7-B3/GpL16-k0 (=100) | B17
42 | 107 % of GpH7-A5/GpH7-B3/GpL16-k0 (=100) | B18
43 | 103 % of GpH7-A5/GpH7-B3/GpL16-k0 (=100) | B19
44 | 95.6 % of GpH7-A5/GpH7-B3/GpL16-k0 (=100) | B20
45 | 104 % of GpH7-A5/GpH7-B3/GpL16-k0 (=100) | B21
46 | 102 % of GpH7-A5/GpH7-B3/GpL16-k0 (=100) | B22
47 | 104 % of GpH7-A5/GpH7-B3/GpL16-k0 (=100) | B23
48 | 103 % of GpH7-A5/GpH7-B3/GpL16-k0 (=100) | B24

The binders below were run against T1, FcγRIIb extracellular domain with … in the same assay as above.
Method: as §1, §2

Row | He/Con_2b | Binder
49 | 70.4 % of GpH7-A5/GpH7-B3/GpL16-k0 (=100) | B1
50 | 62.7 % of GpH7-A5/GpH7-B3/GpL16-k0 (=100) | B2
51 | 66.8 % of GpH7-A5/GpH7-B3/GpL16-k0 (=100) | B3
52 | 70.6 % of GpH7-A5/GpH7-B3/GpL16-k0 (=100) | B4
53 | 79.3 % of GpH7-A5/GpH7-B3/GpL16-k0 (=100) | B5
54 | 65.4 % of GpH7-A5/GpH7-B3/GpL16-k0 (=100) | B6
55 | 86.3 % of GpH7-A5/GpH7-B3/GpL16-k0 (=100) | B7
56 | 44.4 % of GpH7-A5/GpH7-B3/GpL16-k0 (=100) | B8
57 | 65.2 % of GpH7-A5/GpH7-B3/GpL16-k0 (=100) | B9
58 | 64.5 % of GpH7-A5/GpH7-B3/GpL16-k0 (=100) | B10
59 | 11.9 % of GpH7-A5/GpH7-B3/GpL16-k0 (=100) | B11
60 | 89.3 % of GpH7-A5/GpH7-B3/GpL16-k0 (=100) | B12
61 | 65.4 % of GpH7-A5/GpH7-B3/GpL16-k0 (=100) | B13
62 | 79.5 % of GpH7-A5/GpH7-B3/GpL16-k0 (=100) | B14
63 | 56.9 % of GpH7-A5/GpH7-B3/GpL16-k0 (=100) | B15
64 | 72.8 % of GpH7-A5/GpH7-B3/GpL16-k0 (=100) | B16
65 | 82.3 % of GpH7-A5/GpH7-B3/GpL16-k0 (=100) | B17
66 | 73.4 % of GpH7-A5/GpH7-B3/GpL16-k0 (=100) | B18
67 | 79.3 % of GpH7-A5/GpH7-B3/GpL16-k0 (=100) | B19
68 | 36.6 % of GpH7-A5/GpH7-B3/GpL16-k0 (=100) | B20
69 | 84.3 % of GpH7-A5/GpH7-B3/GpL16-k0 (=100) | B21
70 | 64.9 % of GpH7-A5/GpH7-B3/GpL16-k0 (=100) | B22
71 | 80.1 % of GpH7-A5/GpH7-B3/GpL16-k0 (=100) | B23
72 | 82 % of GpH7-A5/GpH7-B3/GpL16-k0 (=100) | B24
